Assay results as given in patent US6794147 (Pfizer, dated 2004).

Target: T1, mouse MLH1 (endogenous, mouse testicular lysates) (mouse, UniProt Q9JK91 1-760)
T1 construct: Endogenous protein immunoprecipitated from mouse testicular lysates
T1 sequence (looked up): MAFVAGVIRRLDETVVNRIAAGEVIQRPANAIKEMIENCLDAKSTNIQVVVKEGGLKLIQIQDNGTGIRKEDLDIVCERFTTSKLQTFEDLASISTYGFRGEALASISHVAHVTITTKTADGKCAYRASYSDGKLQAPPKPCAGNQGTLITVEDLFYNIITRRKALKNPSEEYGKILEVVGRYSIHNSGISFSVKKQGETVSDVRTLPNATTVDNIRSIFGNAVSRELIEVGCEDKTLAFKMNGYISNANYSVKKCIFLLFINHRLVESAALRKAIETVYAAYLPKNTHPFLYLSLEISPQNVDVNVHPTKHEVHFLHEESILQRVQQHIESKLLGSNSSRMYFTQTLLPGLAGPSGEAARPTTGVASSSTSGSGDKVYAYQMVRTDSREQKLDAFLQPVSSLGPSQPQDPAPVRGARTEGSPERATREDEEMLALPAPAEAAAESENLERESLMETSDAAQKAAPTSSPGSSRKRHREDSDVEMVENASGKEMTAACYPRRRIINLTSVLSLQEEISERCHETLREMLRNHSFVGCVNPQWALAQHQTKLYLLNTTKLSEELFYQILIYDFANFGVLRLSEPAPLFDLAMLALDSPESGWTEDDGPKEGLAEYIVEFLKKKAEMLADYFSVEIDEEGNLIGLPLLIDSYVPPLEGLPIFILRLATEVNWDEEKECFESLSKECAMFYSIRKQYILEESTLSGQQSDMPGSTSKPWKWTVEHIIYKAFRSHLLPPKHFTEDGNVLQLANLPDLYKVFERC
Assay: co-immunoprecipitation from mouse testicular lysates with anti-RAD51 antibody, Western blotting

B1: mouse RAD51 (endogenous, mouse testicular lysates) (other, UniProt Q08297 2-339, looked up)
chain: AMQMQLEASADTSVEEESFGPQPISRLEQCGINANDVKKLEEAGYHTVEAVAYAPKKELINIKGISEAKADKILTEAAKLVPMGFTTATEFHQRRSEIIQITTGSKELDKLLQGGIETGSITEMFGEFRTGKTQICHTLAVTCQLPIDRGGGEGKAMYIDTEGTFRPERLLAVAERYGLSGSDVLDNVAYARGFNTDHQTQLLYQASAMMVESRYALLIVDSATALYRTDYSGRGELSARQMHLARFLRMLLRLADEFGVAVVITNQVVAQVDGAAMFAADPKKPIGGNIIAHASTTRLYLRKGRGETRICKIYDSPCLPEAEAMFAINADGVGDAKD
notes: Endogenous protein immunoprecipitated from mouse testicular lysates
binding result: no binding
